The values that follow come from publication doi:10.1101/2022.12.30.522308 (bioRxiv, 2022).

Test [1] has as its target recombinant human IL-9 (R&D Systems) (Homo sapiens, UniProt P15248). Description: BLI.
Test [2] has as its target T1, non-glycosylated binary hIL-9:hIL-9Rα complex (human, UniProt P15248 19-144; Q01113-1 40-261). Description: ITC.
Test [3] has as its target T1, non-glycosylated binary hIL-9:hIL-9Rα …. Description: ITC. This is another data set of the same source.
Test [4] concerns the target recombinant mouse IL-9 (R&D Systems) (mouse, UniProt P15247). Description: BLI.

Where two headings read alike, the source gives them in different places.

Chain of recombinant human IL-9 (R&D Systems) (P15248 19-144): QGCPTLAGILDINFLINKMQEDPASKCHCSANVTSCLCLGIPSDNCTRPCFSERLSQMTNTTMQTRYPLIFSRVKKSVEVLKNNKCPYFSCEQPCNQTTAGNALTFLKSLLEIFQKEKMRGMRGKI
T1 sequence (P15248 19-144, chain 1 of 2): as the sequence (P15248 19-144) above
T1 sequence (Q01113 40-261, chain 2 of 2): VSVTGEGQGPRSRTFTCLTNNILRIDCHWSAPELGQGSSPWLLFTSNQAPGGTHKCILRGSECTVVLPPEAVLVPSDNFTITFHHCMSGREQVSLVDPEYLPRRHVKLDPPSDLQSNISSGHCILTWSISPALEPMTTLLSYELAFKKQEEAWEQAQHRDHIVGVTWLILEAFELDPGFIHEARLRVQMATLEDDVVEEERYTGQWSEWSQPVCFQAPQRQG
Chain of recombinant mouse IL-9 (R&D Systems) (P15247 19-144): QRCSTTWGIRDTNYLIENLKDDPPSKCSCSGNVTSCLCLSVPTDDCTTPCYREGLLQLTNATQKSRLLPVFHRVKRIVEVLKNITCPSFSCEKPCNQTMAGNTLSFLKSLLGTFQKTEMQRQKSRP

B1: anti-hIL-9 monoclonal antibody 7D6 (antibody, V domains shown)
VH: QLQLVESGPGLVKPSQTLSLTCTVSGGSITTGYYAWSWIRQPPGKGLEWMGFIARDGSTSYSPSLKSRTSISRDTSKNQFSLQLSSVTPEDTAVYYCARAGEGRSWYPGYYYGMDYWGKGTLVTVSS
VL: QAVVTQEPSLSVSPGGTVTLTCGLSSGSVTSSNYPGWYQQTPGQAPRVLIYNTNSRHSGVPSRYSGFISGNKAALTITGAEPEDEADYYCHLHKGSTGVFGGGTHLTVL
Consider B1, for which, in test [1], the Kd worked out at 1.8 nM.

B2: anti-hIL-9 monoclonal antibody 6E2 (antibody, V domains shown)
VH: QVQLVESGGGLVQPGGSLRLSCAASGFTFSSSAMGWVRQAPGKGLEWVSTIVNSITTTYYADSVKGRFTISTDNAKNTLYLQIDSLKSEDTAVYYCGSLAGPYYDYWGQGTQVTVSS
VL: ALTQPSTVSVSLGQTARITCQGGSLGSYDAHWYQQKPGQAPVLVIHDNNSRPSGIPERFTGSRSGETATLTISGAQTEDEADYYCQSYDSTSDALVFGGGTQLTVL
In the case of B2, the Kd in test [1] was 0.24 nM.

B3: trimmed extracellular domain of human common gamma chain (hγc, residues 56-254), produced in Sf9 cells (receptor, UniProt P31785-1 56-254, looked up)
chain: PLPEVQCFVFNVEYMNCTWNSSSEPQPTNLTLHYWYKNSDNDKVQKCSHYLFSEEITSGCQLQKKEIHLYQTFVVQLQDPREPRRQATQMLKLQNLVIPWAPENLTLHKLSESQLELNWNNRFLNHCLEHLVQYRTDWDHSWTEQSVDYRHKFSLPSVDGQKRYTFRVRSRFNPLCGSAQHWSEWSHPIHWGSNTSKEN
With B3, the Kd in test [2] is 2500 nM; in test [3], 9 µM.

B4: anti-mIL-9 monoclonal antibody 35D8 (antibody, V domains shown)
VH: QVQLVESGPGLVQPSQTLSLTCTVSGGSITTSYYDWSWIRQPPGKGLEWMGAIAYSGNAYYSPSLKSRTSISRDTSKNQFTLQLSSVTPEDTAVYYCAREDHYSDTHGWNDYWGQGTQVTVSS
VL: ALTQPSAVSVSLGQTARITCQGGSIGNFGATWYQQKPGQAPVLLSLGEHSRPSGIPERFSGSKSGGTATLTISGAQAEDEADYYCQSFDYIGNDHVFGGGTHLTVL
B4: in test [4], the binding result was “binds”.
